Tests used:
Format in all cases: cell-based
[1] = tested on: differentiated mouse adipocyte cell line 3T3-L1; experiment: Enhancing action by anti-GM2A antibody and ligand on glucose uptake (2-deoxyglucose incorporation)
Experimental: (§1) Mouse adipocyte cell line 3T3-L1 was purchased from Health Science Research Resources Bank. Cells of the purchased mouse adipocyte cell line […] were cultured in a D-MEM containing 10% fetal bovine serum (hereinafter referred to as D-MEM (10)) at 37° C. under an atmosphere of 5% CO2. The cultured cells were plated on a 6-well plate. Two days after becoming confluent, the culture solution was exchanged for a pre-differentiation culture solution (D-MEM (10) containing 1 μg/ml insulin, 0.5 mM 3-isobutyl-1-methylxanthine, and 1 μM dexamethasone), and the culture was further cultured for another 4 days. […] Here, the protein concentration of the specimen was measured using BCA Protein Assay Reagent (catalogue No. 23228, Pierce) using bovine serum albumin as a standard protein.
The amount of 2-deoxyglucose in the specimen was quantitatively determined according to the following method. To a plate for fluorescence measurement, were added 100 μl of an assay buffer (50 mM triethanolamine (pH 8.1), 50 mM KCl, 0.5 mM MgCl2, 0.02% bovine serum albumin, 670 μM ATP, 0.12 μM NADP^+, 25 μM resazurin, 5.5 units/ml hexokinase, 16 units/ml G6PDH, 1 units/ml diaphorase) and 100 μl of the specimen. After keeping the obtained mixture at 37° C. for 90 minutes, the fluorescence intensity of the obtained mixture was measured (excitation wavelength: 530 nm, detection wavelength: 595 nm). […]

[2] = tested on: rat pheochromocytoma cell line PC12; experiment: Inhibition by GM2A protein of NGF intracellular signaling (Akt phosphorylation, Western blot); settings: for Phosphorylated Akt/Akt: NGF + (0.1 μg/ml, 10 minutes), 24 hours, no NGF = 1.0, NGF alone = 1.8
Experimental: (§2) Mouse skeletal muscle cell line C2C12 (CRL-1772) and rat pheochromocytoma cell line PC12 (CRl-1721) were purchased from ATCC. Cells of the both cell lines were cultured in a D-MEM medium containing 10% inactivated fetal bovine serum (catalogue No. 14247-15, NACALAI TESQUE, INC.) at 37° C. under an atmosphere of 5% CO2. Cells of differentiated mouse skeletal muscle cell line C2C12 were prepared by exchanging the medium for a D-MEM containing 2% inactivated equine serum and culturing the mixture for […].
(§3) Human GM2A protein was prepared as follows. First, a cDNA was prepared from human lung cancer cell line HARA-B (catalogue No. JCRB1080.1, Health Science Research Resources Bank), using oligo(dT). Using the prepared cDNA, a PCR fragment containing the full length of human GM2A gene was obtained. The obtained PCR fragment was inserted into pET24a vector (catalogue No. 69749-3, Novagen), whereby human GM2A/pET24a plasmid was prepared. Next, after human GM2A/pET24a was added to Escherichia coli BL21 (DE3) pLysS (catalogue No. 69451-4, Novagen) to transform the Escherichia coli, the obtained Escherichia coli was cultured on shaking in an LB medium containing 50 μg/ml kanamycin at 37° C. until OD600=about 0.5. Then, after Isopropyl-β-thiogalactopyranoside (catalogue No. 9030, Takara Bio Inc.) was added to the obtained culture so that the final concentration could be 0.5 mM, the culture was further cultured on shaking at 18° C. for 3 hours. Bacterial cells were collected by centrifuging the obtained culture, and the collected bacterial cells were sonicated. Then, the obtained homogenate was centrifuged at 11,000 rpm for 30 minutes. After Ni-NTA agarose (catalogue No. 1018244, Qiagen) was added to the obtained supernatant and left at 4° C. for 2 hours, the obtained left object was washed 5 times. From the obtained washed object, an elution fraction of a protein was obtained by elution of a protein with 250 mM imidazole. The obtained elution fraction was purified by anion exchange chromatography HiTrapQ HP, whereby human GM2A protein was prepared. […]

[3] = tested on: differentiated mouse skeletal muscle cell line C2C12; experiment: Inhibition by GM2A protein of insulin intracellular signaling (Akt phosphorylation, Western blot); settings: for Phosphorylated Akt/Akt: Insulin + (1 μg/ml, 10 minutes), 24 hours, no insulin = 1.0, insulin alone = 2.1
Experimental: as §2, §3

[4] = tested on: undifferentiated mouse skeletal muscle cell line C2C12; experiment: Inhibition by GM2A protein of leptin intracellular signaling (AMPK alpha phosphorylation, Western blot); settings: for Phosphorylated AMPK alpha/AMPK alpha: Leptin + (0.1 μg/ml, 30 minutes), 24 hours, no leptin = 1.0, leptin alone = 1.9
Experimental: as §2, §3

[5] = tested on: mouse adipocyte cell line 3T3-L1; experiment: Inhibitory action by GM2A protein on glucose uptake (2-deoxyglucose incorporation); settings: for Amount of 2-Deoxyglucose: relative value per amount of protein, Insulin +, no insulin = 100, insulin alone = 215
Experimental: as §1, with “days. Next, after the pre-differentiation culture solution was exchanged for a post-differentiation culture solution (D-MEM (10) containing 1 insulin) and the culture was cultured for 3 days, the culture solution was exchanged for a D-MEM (10) containing mouse GM2A protein, and the culture was further cultured for another day.” for “days.”
The amount of 2-deoxyglucose in the specimen was quantitatively determined according to the following method. To a plate for fluorescence measurement, were added 100 μl of an assay buffer (50 mM triethanolamine (pH 8.1), 50 mM KCl, 0.5 mM MgCl2, 0.02% bovine serum albumin, 670 μM ATP, 0.12 μM NADP^+, 25 μM resazurin, 5.5 units/ml hexokinase, 16 units/ml G6PDH, 1 units/ml diaphorase) and 100 μl of the specimen. After keeping the obtained mixture at 37° C. for 90 minutes, the fluorescence intensity of the obtained mixture was measured (excitation wavelength: 530 nm, detection wavelength: 595 nm). A calibration curve was created using 2-deoxyglucose of 500 μM, 250 μM, 125 μM and 0 μM (purified water) as a standard, and quantitative determination was carried out on the basis of the calibration curve. The amount of 2-deoxyglucose incorporated into a cell per the amount of protein of the specimen was calculated as a relative value.

[6] = concentration-dependent, 2 and 4 μg/ml

ganglioside GM2
intracellular incorporation of 2-deoxyglucose [1]: enhanced | Amount of 2-Deoxyglucose ([1]; relative value, 1 μM, 1 day, DMSO = 100): 120

B1: GM2A Protein: mouse GM2A protein added to the culture solution of 3T3-L1 cells in Example 8 (protein)
chain: ARLVPKRLSQLGGFSWDNCDEGKDPAVIKSLTIQPDPIVVPGDVVVSLEGKTSVPLTAPQKVELTVEKEVAGFWVKIPCVEQLGSCSYENICDLIDEYIPPGESCPEPLHTYGLPCHCPFKEGTYSLPTSNFTVPDLELPSWLSTGNYRIQSILSSGGKRLGCIKIAASLKGR
intracellular signaling of NGF [2, 6]: inhibited | intracellular signaling of insulin [3, 6]: inhibited | intracellular signaling of leptin [4, 6]: inhibited | enhancing action by insulin on intracellular incorporation of 2-deoxyglucose ([5]; concentration-dependent, 2 and 10 μg/ml): inhibited | Amount of 2-Deoxyglucose ([5]; GM2A Protein 2 μg/ml): 184 | Amount of 2-Deoxyglucose ([5]; GM2A Protein 10 μg/ml): 156

B2: GM2AP: Human GM2A protein expressed in Escherichia coli from human GM2A/pET24a, purified by Ni-NTA agarose and anion exchange chromatography (protein)
chain: HLKKPSQLSSFSWDNCDEGKDPAVIRSLTLEPDPIIVPGNVTLSVMGSTSVPLSSPLKVDLVLEKEVAGLWIKIPCTDYIGSCTFEHFCDVLDMLIPTGEPCPEPLRTYGLPCHCPFKEGTYSLPKSEFVVPDLELPSWLTTGNYRIESVLSSSGKRLGCIKIAASLKGI
Phosphorylated Akt/Akt ([2]; GM2AP 2 μg/ml): 1.5 | Phosphorylated Akt/Akt ([2]; GM2AP 4 μg/ml): 1.4 | Phosphorylated Akt/Akt ([3]; GM2AP 2 μg/ml): 1.8 | Phosphorylated Akt/Akt ([3]; GM2AP 4 μg/ml): 1.2 | Phosphorylated AMPK alpha/AMPK alpha ([4]; GM2AP 2 μg/ml): 1.0 | Phosphorylated AMPK alpha/AMPK alpha ([4]; GM2AP 4 μg/ml): 0.9

Source: patent US20110214193A1, “BIOMARKER FOR MICRODOMAIN DISEASE” (SUMITOMO CHEMICAL COMPANY, LIMITED, priority 2008, published 2011)
